Test results from FireProtDB (doi:10.1021/bi0115028).
Several values for one entry are separate records, joined by “and”; a condition that tells them apart may be missing. Equal values may be shown once.

Conditions: Bos taurus, 25 °C, NaCl 2 M, whole UniProt chain shown
[1] = pH 2.3, GdnHCl, Absorbance, H3PO4, NaOH
[2] = pH 2.3, GdnHCl, CD, H3PO4, NaOH
[3] = pH 6.2, GdnHCl, Absorbance, KH2PO4-Na2HPO4
[4] = pH 6.2, GdnHCl, CD, KH2PO4-Na2HPO4
[5] = pH 6.2, Urea, Absorbance, KH2PO4-Na2HPO4
[6] = pH 6.2, Urea, CD, KH2PO4-Na2HPO4
[7] = pH 8.3, GdnHCl, Absorbance, KHPO4-Na2HPO4/NaOH
[8] = pH 8.3, GdnHCl, CD, KHPO4-Na2HPO4/NaOH
[9] = pH 8.3, Urea, Absorbance, KHPO4-Na2HPO4/NaOH
[10] = pH 8.3, Urea, CD, KHPO4-Na2HPO4/NaOH

B1: Beta-lactoglobulin wild type, P02754 (protein)
chain: MKCLLLALALTCGAQALIVTQTMKGLDIQKVAGTWYSLAMAASDISLLDAQSAPLRVYVEELKPTPEGDLEILLQKWENGECAQKKIIAEKTKIPAVFKIDALNENKVLVLDTDYKKYLLFCMENSAEPEQSLACQCLVRTPEVDDEALEKFDKALKALPMHIRLSFNPTQLEEQCHI
denaturant m value [1]: 3.9 kcal/mol/M
denaturant midpoint (higher = more stable) [1]: 3.4 M
unfolding free energy [1]: 56.1 kJ/mol
denaturant m value [2]: 3.8 kcal/mol/M and 4.4 kcal/mol/M
denaturant midpoint (higher = more stable) [2]: 3.5 M
unfolding free energy [2]: 54.4 kJ/mol and 63.6 kJ/mol
denaturant m value [3]: 2.5 kcal/mol/M
denaturant midpoint (higher = more stable) [3]: 2.7 M
unfolding free energy [3]: 35.1 kJ/mol
denaturant m value [4]: 3.3 kcal/mol/M and 2.5 kcal/mol/M
denaturant midpoint (higher = more stable) [4]: 2.9 M and 2.7 M
unfolding free energy [4]: 39.7 kJ/mol and 28.9 kJ/mol
denaturant m value [5]: 0.9 kcal/mol/M
denaturant midpoint (higher = more stable) [5]: 4.1 M
unfolding free energy [5]: 15.5 kJ/mol
denaturant m value [6]: 0.7 kcal/mol/M and 0.6 kcal/mol/M
denaturant midpoint (higher = more stable) [6]: 3.5 M and 2.1 M
unfolding free energy [6]: 9.62 kJ/mol and 5.86 kJ/mol
denaturant m value [7]: 3.2 kcal/mol/M
denaturant midpoint (higher = more stable) [7]: 2.3 M
unfolding free energy [7]: 31.8 kJ/mol
denaturant m value [8]: 3 kcal/mol/M and 3.4 kcal/mol/M
denaturant midpoint (higher = more stable) [8]: 2 M
unfolding free energy [8]: 24.7 kJ/mol and 28.9 kJ/mol
denaturant m value [9]: 1.1 kcal/mol/M
denaturant midpoint (higher = more stable) [9]: 3.5 M
unfolding free energy [9]: 16.7 kJ/mol
denaturant m value [10]: 1.5 kcal/mol/M and 1.4 kcal/mol/M
denaturant midpoint (higher = more stable) [10]: 4.4 M and 3.6 M
unfolding free energy [10]: 26.8 kJ/mol and 20.9 kJ/mol
